Reference: the supplement of paper PMC9112550, “Optimization of the antimicrobial peptide Bac7 by deep mutational scanning” (BMC Biology, 2022)

Tested on: Escherichia coli TOP10
Test: shrunken log2 fold change of peptide-encoding DNA abundance (4.5 h post-induction vs induction); higher = less antimicrobial activity (less host growth inhibition)
Conditions: time post-induction: 4.5 h; library: site-saturation at positions 5, 18, 19, 20
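Also: peptides expressed intracellularly from a pBAD plasmid library in pooled LB shake-flask culture, induced with 0.3% L-arabinose, DNA abundance read by NGS, three biological replicates, DESeq2 with apeglm shrinkage.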

Sequence	shrunken log2 fold change
RRIRRRPPRLPRPRPRPNYQPRP	-0.263
RRIRWRPPRLPRPRPRPKFKPRP	-0.00802
RRIRHRPPRLPRPRPRPLHDPRP	-0.277
RRIRWRPPRLPRPRPRPANHPRP	-0.262
RRIRARPPRLPRPRPRPNYQPRP	-0.418
RRIRMRPPRLPRPRPRPNRFPRP	-0.0257
RRIRLRPPRLPRPRPRPEKEPRP	0.263
RRIRKRPPRLPRPRPRPMADPRP	-0.000921
RRIRRRPPRLPRPRPRPPSWPRP	0.295
RRIRRRPPRLPRPRPRPPYGPRP	0.0935
RRIRGRPPRLPRPRPRPHHCPRP	-0.118
RRIRARPPRLPRPRPRPKMLPRP	0.332
RRIRSRPPRLPRPRPRPKTDPRP	0.124
RRIRDRPPRLPRPRPRPFGLPRP	-0.259
RRIRTRPPRLPRPRPRPDGWPRP	0.468
RRIRMRPPRLPRPRPRPYTWPRP	-0.101
RRIRTRPPRLPRPRPRPAITPRP	-0.44
RRIRLRPPRLPRPRPRPKSIPRP	-0.189
RRIRWRPPRLPRPRPRPFAPPRP	0.505
RRIRFRPPRLPRPRPRPPKQPRP	0.226
RRIRYRPPRLPRPRPRPNYAPRP	-0.223
RRIRKRPPRLPRPRPRPCNTPRP	-0.113
RRIRVRPPRLPRPRPRPAYAPRP	-0.129
RRIRDRPPRLPRPRPRPLKGPRP	-0.0274
RRIRERPPRLPRPRPRPDENPRP	-0.0287

Sequence	shrunken log2 fold change
RRIRHRPPRLPRPRPRPSFSPRP	-0.483
RRIRKRPPRLPRPRPRPKHKPRP	0.362
RRIRLRPPRLPRPRPRPCMHPRP	-0.0286
RRIRKRPPRLPRPRPRPADSPRP	0.00593
RRIRKRPPRLPRPRPRPCNYPRP	-0.0312
RRIRARPPRLPRPRPRPMWEPRP	-0.000921
RRIRARPPRLPRPRPRPCGNPRP	0.0115
RRIRNRPPRLPRPRPRPMDYPRP	0.0678
RRIRCRPPRLPRPRPRPAPEPRP	0.766
RRIRRRPPRLPRPRPRPSIEPRP	-0.232
RRIRIRPPRLPRPRPRPVASPRP	-0.14
RRIRMRPPRLPRPRPRPCKRPRP	0.00656
RRIRWRPPRLPRPRPRPTTHPRP	0.163
RRIRIRPPRLPRPRPRPLACPRP	-0.398
RRIRTRPPRLPRPRPRPDILPRP	0.109
RRIRCRPPRLPRPRPRPEFGPRP	0.241
RRIRARPPRLPRPRPRPRDVPRP	0.261
RRIRTRPPRLPRPRPRPHPEPRP	-0.0834
RRIRRRPPRLPRPRPRPIHHPRP	-0.207
RRIRHRPPRLPRPRPRPQGGPRP	-0.0982
RRIRRRPPRLPRPRPRPLFWPRP	0.472
RRIRDRPPRLPRPRPRPTRYPRP	0.317
RRIRVRPPRLPRPRPRPPTAPRP	0.43
RRIRGRPPRLPRPRPRPFTNPRP	0.0545
RRIRQRPPRLPRPRPRPIPNPRP	-0.0226

Sequence	shrunken log2 fold change
RRIRARPPRLPRPRPRPMWDPRP	-0.103
RRIRDRPPRLPRPRPRPWYYPRP	0.0606
RRIRPRPPRLPRPRPRPGFFPRP	0.216
RRIRKRPPRLPRPRPRPANSPRP	-0.0423
RRIRMRPPRLPRPRPRPNHNPRP	-0.687
RRIRKRPPRLPRPRPRPDWCPRP	0.292
RRIRNRPPRLPRPRPRPALKPRP	0.108
RRIRQRPPRLPRPRPRPTVTPRP	-0.47
RRIRWRPPRLPRPRPRPSWGPRP	0.121
RRIRRRPPRLPRPRPRPVCNPRP	0.181
RRIRVRPPRLPRPRPRPFIVPRP	-0.285
RRIRHRPPRLPRPRPRPHHLPRP	-0.0119
RRIRQRPPRLPRPRPRPCSKPRP	-0.18
RRIRNRPPRLPRPRPRPEVKPRP	-0.031
RRIRVRPPRLPRPRPRPKLAPRP	0.274
RRIRDRPPRLPRPRPRPHNMPRP	-0.135
RRIRDRPPRLPRPRPRPCCTPRP	0.149
RRIRERPPRLPRPRPRPGEGPRP	0.028
RRIRRRPPRLPRPRPRPFKFPRP	-0.0354
RRIRNRPPRLPRPRPRPHVSPRP	-0.00166
RRIRERPPRLPRPRPRPFCKPRP	0.0112
RRIRCRPPRLPRPRPRPKLCPRP	0.0418
RRIRERPPRLPRPRPRPPKNPRP	0.284
RRIRIRPPRLPRPRPRPVMAPRP	-0.526
RRIRFRPPRLPRPRPRPNMSPRP	-0.54

Sequence	shrunken log2 fold change
RRIRWRPPRLPRPRPRPDYGPRP	-0.202
RRIRFRPPRLPRPRPRPWPIPRP	-0.0205
RRIRSRPPRLPRPRPRPEDAPRP	0.821
RRIRSRPPRLPRPRPRPHDWPRP	-0.323
RRIRIRPPRLPRPRPRPLTMPRP	-0.181
RRIRPRPPRLPRPRPRPALTPRP	0.241
RRIRVRPPRLPRPRPRPSTTPRP	-0.0817
RRIRMRPPRLPRPRPRPLKKPRP	0.349
RRIRRRPPRLPRPRPRPIWWPRP	0.58
RRIRNRPPRLPRPRPRPRHNPRP	-0.403
RRIRWRPPRLPRPRPRPNPWPRP	0.265
RRIRHRPPRLPRPRPRPCSAPRP	-0.473
RRIRNRPPRLPRPRPRPLTQPRP	-0.328
RRIRVRPPRLPRPRPRPSGLPRP	0.0687
RRIRVRPPRLPRPRPRPWYLPRP	-0.425
RRIRGRPPRLPRPRPRPWMEPRP	0.563
RRIRTRPPRLPRPRPRPGYCPRP	-0.184
RRIRERPPRLPRPRPRPIADPRP	0.13
RRIRPRPPRLPRPRPRPIIFPRP	-0.0799
RRIRDRPPRLPRPRPRPFRAPRP	-0.0871
RRIRCRPPRLPRPRPRPMHVPRP	0.0371
RRIRARPPRLPRPRPRPNDQPRP	0.226
RRIRERPPRLPRPRPRPAGDPRP	3.19
RRIRFRPPRLPRPRPRPNDKPRP	-0.32
RRIRHRPPRLPRPRPRPVPQPRP	-0.0725

Sequence	shrunken log2 fold change
RRIRSRPPRLPRPRPRPIYKPRP	-0.243
RRIRIRPPRLPRPRPRPGCGPRP	0.349
RRIRLRPPRLPRPRPRPDVQPRP	0.0463
RRIRHRPPRLPRPRPRPEKSPRP	0.0275
RRIRFRPPRLPRPRPRPIYCPRP	-0.0425
RRIRFRPPRLPRPRPRPWDEPRP	-0.264
RRIRARPPRLPRPRPRPMKKPRP	0.143
RRIRERPPRLPRPRPRPMPPPRP	0.197
RRIRIRPPRLPRPRPRPADNPRP	0.00497
RRIRARPPRLPRPRPRPVIMPRP	-0.42
RRIRLRPPRLPRPRPRPLQMPRP	-0.135
RRIRARPPRLPRPRPRPDRGPRP	-0.283
RRIRLRPPRLPRPRPRPMTYPRP	-0.0978
RRIRSRPPRLPRPRPRPYKNPRP	-0.399
RRIRMRPPRLPRPRPRPLDYPRP	-0.0259
RRIRDRPPRLPRPRPRPTQHPRP	0.396
RRIRQRPPRLPRPRPRPKEAPRP	0.107
RRIRCRPPRLPRPRPRPHICPRP	-0.272
RRIRPRPPRLPRPRPRPKQWPRP	-0.22
RRIRKRPPRLPRPRPRPTWCPRP	0.263
RRIRPRPPRLPRPRPRPAIWPRP	0.405
RRIRMRPPRLPRPRPRPTLSPRP	0.377
RRIRVRPPRLPRPRPRPPDWPRP	0.46
RRIRNRPPRLPRPRPRPKRMPRP	-0.056
RRIRYRPPRLPRPRPRPPNTPRP	-0.686

Sequence	shrunken log2 fold change
RRIRMRPPRLPRPRPRPWFIPRP	-0.183
RRIRIRPPRLPRPRPRPMLKPRP	-0.282
RRIRNRPPRLPRPRPRPPVSPRP	-0.401
RRIRLRPPRLPRPRPRPFTWPRP	-0.369
RRIRRRPPRLPRPRPRPFQVPRP	-0.0462
RRIRHRPPRLPRPRPRPMNDPRP	-0.108
RRIRFRPPRLPRPRPRPWNMPRP	-0.24
RRIRRRPPRLPRPRPRPLWGPRP	0.0229
RRIRQRPPRLPRPRPRPAWTPRP	-0.177
RRIRDRPPRLPRPRPRPYSTPRP	-0.0663
RRIRARPPRLPRPRPRPDHWPRP	0.0446
RRIRPRPPRLPRPRPRPTTVPRP	0.0207
RRIRQRPPRLPRPRPRPGFFPRP	0.128
RRIRHRPPRLPRPRPRPWTEPRP	0.0218
RRIRLRPPRLPRPRPRPPCEPRP	0.123
RRIRERPPRLPRPRPRPFPPPRP	-0.38
RRIRIRPPRLPRPRPRPTRKPRP	-0.101
RRIRNRPPRLPRPRPRPMVRPRP	4.1
RRIRFRPPRLPRPRPRPIYPPRP	-0.574
RRIRCRPPRLPRPRPRPGRLPRP	-0.0858
RRIRYRPPRLPRPRPRPISHPRP	-0.675
RRIRGRPPRLPRPRPRPRQFPRP	0.354
RRIRGRPPRLPRPRPRPTSQPRP	0.87
RRIRFRPPRLPRPRPRPKCDPRP	-0.136
RRIRGRPPRLPRPRPRPSPHPRP	0.435
